Test system: accelerated blood clearance (ABC)
Assay: Accelerated blood clearance (ABC) upon subsequent administration of LNP with a B cell targeting agent
Type: in vivo
Details: combination with the LNP

Rituximab: monoclonal antibody against the protein CD20
ABC upon subsequent administration of LNP: significantly reduced ABC

Reference: patent publication US11905525B2, “Reduction of elimination of immune responses to non-intravenous, e.g., subcutaneously administered therapeutic proteins” (ModernaTX, Inc., priority 2017, dated 2024)
